Results on three molecules are retold here after patent EP4663662A1 (Shanghai Qilu Pharmaceutical Research and Development …, dated 2025).

Changes are numbered by the printed parent chain. Read-outs that look alike come from different tables or passages of the source.

Test [1] has as its target T1, human BCMA (human, UniProt Q02223 1-184).
T1 construct: On transfected CHOK1 cells; also called Human BCMA-CHOK1 cell line; Human BCMA CHOK1
T1 sequence: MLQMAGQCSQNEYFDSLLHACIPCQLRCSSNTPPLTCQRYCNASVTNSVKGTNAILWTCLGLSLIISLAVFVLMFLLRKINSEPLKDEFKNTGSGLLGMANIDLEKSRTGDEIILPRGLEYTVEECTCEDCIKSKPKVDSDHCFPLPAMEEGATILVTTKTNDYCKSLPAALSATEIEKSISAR
Kind of test: flow cytometry, human BCMA-CHOK1 cells. (Flow cytometry measures light scatter and fluorescence of single cells or particles in a stream.)

In test [2] the target is T2, cynomolgus monkey BCMA (cynomolgus monkey, UniProt Q02223 1-184 (human entry)).
T2 construct: On transduced CHOK1 cells; also called cyno-BCMA; Cynomolgus monkey BCMA-CHOK1 cell line
T2 sequence (Q02223 other isoform, or with tags, fused parts or gaps): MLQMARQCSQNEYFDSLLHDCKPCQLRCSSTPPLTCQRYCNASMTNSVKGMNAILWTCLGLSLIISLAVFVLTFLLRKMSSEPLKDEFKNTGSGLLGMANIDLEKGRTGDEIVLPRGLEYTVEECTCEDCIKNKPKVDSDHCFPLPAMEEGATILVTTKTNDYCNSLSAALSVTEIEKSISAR
Kind of test: flow cytometry, cynomolgus BCMA-CHOK1 cells.

In test [3] the target is T1, human BCMA. Description: flow cytometry, human BCMA-CHOK1 cells. The source holds these as a separate data set.
The target of test [4] is T2, cynomolgus monkey BCMA. Kind of test: flow cytometry, cynomolgus BCMA-CHOK1 cells. This is another data set of the same source.
Test [5] addresses T1, human BCMA. Kind of test: flow cytometry, human BCMA-CHOK1 cells. This is another data set of the same source.
Test [6] concerns the target T2, cynomolgus monkey BCMA. Kind of test: flow cytometry, cynomolgus BCMA-CHOK1 cells. This is another data set of the same source.

B1: 19CH-16 anti-BCMA chimeric antibody derived from mouse hybridoma (antibody, IgG1, V domains shown)
VH: QGQMQQSGAELVKPGTSVKLSCKTSGFTFRSSYISWLQQKPGQSLEWIAWIYAGSGNTDYNQKFTGKAQLTVDTSSSTAYMQFSSLTTEDSAIYYCARHYDPPHYFDYWGQGTTLTVSS
VL: QIVLTQSPAIMSASPGEKVTMTCSASSGVSHMHWYQQKSGTSPKRWIYDTSKLTSGVPTRFSGTGSGTSYSLSISSMEAEDAATYYCQQWSRNPWTFGGGTKLEIK
On to B1, for which the EC50 with human BCMA [1] worked out at 0.885 nM; with cynomolgus monkey BCMA [2], 1.22 nM.

B2: 19CH-16H2L2 humanized anti-BCMA antibody (antibody, IgG1, V domains shown)
VH: QVQLVQSGAEVKKPGASVKVSCKASGFTFRSSYISWVRQAPGQGLEWIAWIYAGSGNTDYNQKFTGRVTMTVDTSTSTVYMELSSLRSEDTAVYYCARHYDPPHYFDYWGQGTLVTVSS
VL: DIQLTQSPSSLSASVGDRVTITCSASSGVSHMHWYQQKPGKAPKRWIYDTSKLTSGVPSRFSGSGSGTDFTLTISSLQPEDFATYYCQQWSRNPWTFGQGTKVEIK
Turning to B2, the EC50 was 2.13 nM in the test with human BCMA [3] and 4.82 nM in the test with cynomolgus monkey BCMA [4].

B3: 19CH-16H2L2-NA humanized anti-BCMA antibody variant (antibody, IgG1, V domains shown)
VH: B2 VH with T58A
VL: B2 VL
Take B3: the EC50 with human BCMA [5] is 2.15 nM; with cynomolgus monkey BCMA [6], 5.86 nM.

The term EC50 denotes the concentration at which the effect is half-maximal.
